Experimental findings from article doi:10.1101/2020.01.14.906479 (bioRxiv, 2020) are described below.

The assay concerns the target T1, recombinant Plasmodium falciparum 14-3-3I (GST-14-3-3I fusion protein) (P. falciparum 3D7, UniProt C0H4V6 1-262).
T1 sequence (looked up): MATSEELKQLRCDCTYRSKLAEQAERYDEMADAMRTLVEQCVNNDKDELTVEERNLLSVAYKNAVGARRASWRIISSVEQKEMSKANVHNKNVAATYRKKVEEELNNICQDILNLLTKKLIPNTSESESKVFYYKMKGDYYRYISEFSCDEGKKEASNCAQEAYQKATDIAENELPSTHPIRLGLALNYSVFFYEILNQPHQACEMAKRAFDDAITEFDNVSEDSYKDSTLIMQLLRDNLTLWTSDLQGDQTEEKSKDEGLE
Description: ITC. For orientation: ITC needs no label: the signal is the heat of the interaction.

Square brackets hold non-standard residues; d marks the D form. Ends that are not written are not given here. pS = N[C@@H](COP(=O)(O)O)C(=O)O

B1: phosphopeptide 1 (Mode I 14-3-3 recognition motif, ARSHpSYPA) (peptide)
peptide: ARSH[pS]YPA
Regarding B1, the Ka was found to be 1.7e+06 M⁻¹ and the dH was -11.3 ± 4.27 kcal/mol.

B2: phosphopeptide 2 (Mode II 14-3-3 recognition motif, RLYHpSLPA) (peptide)
peptide: RLYH[pS]LPA
Turning to B2, the Ka came out at 830000 M⁻¹ and the dH was -1.52 ± 0.096 kcal/mol.
